Reference: paper PMC12489474, “New structural insights into the control of the retinoic acid receptors RAR/RXR by DNA, ligands, and transcriptional coregulators” (Nucleic Acids Research, 2025)

B3: NCoRNID (nuclear receptor interaction domain of the Nuclear receptor CoRepressor) (domain or fragment, UniProt Q60974 2059-2325, looked up)
chain: QVPRTHRLITLADHICQIITQDFARNQVPSQASTSTFQTSPSALSSTPVRTKTSSRYSPESQSQTVLHPRPGPRVSPENLVDKSRGSRPGKSPERSHIPSEPYEPISPPQGPAVHEKQDSMLLLSQRGVDPAEQRSDSRSPGSISYLPSFFTKLESTSPMVKSKKQEIFRKLNSSGGGDSDMAAAQPGTEIFNLPAVTTSGAVSSRSHSFADPASNLGLEDIIRKALMGSFDDKVEDHGVVMSHPVGIMPGSASTSVVTSSEARRDE
notes: Unlabelled form used for SEC-MALS, SEC-SAXS and HDX-MS; also called NCOR1

Key:
[1] = biological target: NCoRNID mut2 (point mutations designed to disrupt the helical folding of the IR region) (UniProt Q60974); assay: MST; RR–DR5 with BMS493; heterodimer titrated against labelled NCoRNID; same buffer, 22°C
[2] = biological target: B3; assay: SEC-MALS; with SDS–PAGE; complexes of RR–DNA and NCoRNID formed in the presence of BMS493; details: both partners purified
[3] = biological target: TIF-2NRID (nuclear receptor interaction domain of the transcriptional intermediary factor 2); assay: SEC; with SDS–PAGE; complexes of RR–DNA and TIF-2NRID formed in the presence of both agonists (AM580, CD3254)
[4] = biological target: NCoRNID mut1 (IR region replaced by a fully disordered segment) (UniProt Q60974); assay: MST; RAR/RXR bound to DR1 DNA (RR–DR1), no ligand (apo); heterodimer titrated against labelled NCoRNID; same buffer, 22°C
[5] = biological target: NCoRNID mut2 (point mutations designed to disrupt the helical folding of the IR region) (UniProt Q60974); assay: MST; RAR/RXR bound to DR5 DNA (RR–DR5), no ligand (apo); heterodimer titrated against labelled NCoRNID; same buffer, 22°C
[6] = biological target: Alexa488-labeled TIF-2NRID; assay: fluorescence polarisation; steady-state fluorescence anisotropy; RR–DR0 titrated against 10 nM Alexa488-TIF-2NRID with 12 μM AM580 and CD3254; same buffer
[7] = biological target: Alexa488-labeled TIF-2NRID; assay: fluorescence polarisation; steady-state fluorescence anisotropy; RR–DR1 titrated against 10 nM Alexa488-TIF-2NRID with 12 μM AM580 and CD3254; same buffer
[8] = biological target: Alexa488-labeled TIF-2NRID; assay: fluorescence polarisation; steady-state fluorescence anisotropy; RR–DR5 titrated against 10 nM Alexa488-TIF-2NRID with 12 μM AM580 and CD3254; same buffer
[9] = biological target: Alexa488-labeled TIF-2NRID; assay: fluorescence polarisation; steady-state fluorescence anisotropy; RR–IR0 titrated against 10 nM Alexa488-TIF-2NRID with 12 μM AM580 and CD3254; same buffer
[10] = biological target: Alexa488-labeled TIF-2NRID; assay: fluorescence polarisation; steady-state fluorescence anisotropy; RAR/RXR without DNA titrated (from 4 μM, 2-fold dilutions) against 10 nM Alexa488-TIF-2NRID with 12 μM AM580 and CD3254; 20 mM Tris–HCl pH 7.5, 75 mM NaCl, 75 mM KCl, 2 mM CHAPS, 4 mM MgCl2, 5 mM DTT, 10% glycerol
[11] = biological target: T1, HsRXRAΔAB (retinoid X receptor alpha without the A/B domain) (human (printed as HsRXRAΔAB; the same …, UniProt P19793 126-462); assay: SEC-MALS; purified RAR/RXR heterodimer; single peak, molecular weight matching the heterodimer; details: both partners purified
T1 construct: A/B domain removed; In the rows of this molecule it stood as a subunit of the RAR/RXR heterodimer; Vector pET28b; also called RXRα; MmRXRAΔAB; source: E. coli BL21 (DE3), purified (HisTrap HP, thrombin cleavage, SEC Superdex 75); not shown: His6, N-terminal, cleaved
T1 sequence (looked up): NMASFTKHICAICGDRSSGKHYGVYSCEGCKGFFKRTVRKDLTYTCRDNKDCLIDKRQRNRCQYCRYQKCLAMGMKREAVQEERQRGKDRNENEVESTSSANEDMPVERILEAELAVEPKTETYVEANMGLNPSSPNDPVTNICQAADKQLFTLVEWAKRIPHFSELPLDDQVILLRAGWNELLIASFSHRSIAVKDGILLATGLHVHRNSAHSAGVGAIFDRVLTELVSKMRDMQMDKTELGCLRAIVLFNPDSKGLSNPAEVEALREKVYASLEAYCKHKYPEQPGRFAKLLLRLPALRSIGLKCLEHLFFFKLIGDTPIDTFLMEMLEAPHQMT

[12] = biological target: T1, HsRXRAΔAB (retinoid X receptor alpha …); assay: HDX-MS; RAR/RXR and RR–DNA (DR0, DR1, DR5, IR0) with and without NCoRNID, with BMS493; 4°C, 20 μM complex diluted 10-fold into deuterated buffer pD 7.5; 4 s to 10 800 s; RAR and RXR read as subunits of the heterodimer; details: both partners purified
[13] = biological target: T2, RARalpha dAB dF;RXRalpha dAB (Mus musculus / Homo sapiens (Methods …, UniProt P11416;P19793 82-421;126-462, |)); assay: fluorescence anisotropy; apo; Fluorescence anisotropy: 20 mM Tris-HCl pH 7.5, 75 mM NaCl, 75 mM KCl, 2 mM CHAPS, 4 mM MgCl2, 2 mM TCEP, 10% glycerol, 0.5 nM Cy5-DNA, 4 uM ligands, 294 K; details: protein: recombinant;recombinant, tags: N-terminal His6 (pET15b), copies: 1;1, label: Cy5 on forward strand
[14] = biological target: T2, RARalpha dAB dF;RXRalpha dAB; assay: fluorescence anisotropy; BMS493; Fluorescence anisotropy: 20 mM Tris-HCl pH 7.5, 75 mM NaCl, 75 mM KCl, 2 mM CHAPS, 4 mM MgCl2, 2 mM TCEP, 10% glycerol, 0.5 nM Cy5-DNA, 4 uM ligands, 294 K; details: protein: recombinant;recombinant, tags: N-terminal His6 (pET15b), copies: 1;1, label: Cy5 on forward strand
[15] = biological target: T2, RARalpha dAB dF;RXRalpha dAB; assay: fluorescence anisotropy; AM580 + CD3254; Fluorescence anisotropy: 20 mM Tris-HCl pH 7.5, 75 mM NaCl, 75 mM KCl, 2 mM CHAPS, 4 mM MgCl2, 2 mM TCEP, 10% glycerol, 0.5 nM Cy5-DNA, 4 uM ligands, 294 K; details: protein: recombinant;recombinant, tags: N-terminal His6 (pET15b), copies: 1;1, label: Cy5 on forward strand
[16] = biological target: RARalpha dAB dF;RXRalpha dAB;NCoR NID (Mus musculus / Homo sapiens (Methods …, UniProt P11416;P19793;Q60974 82-421;126-462;2059-2325, ||)); assay: SEC-SAXS, HDX-MS; BMS493; Fluorescence anisotropy: 20 mM Tris-HCl pH 7.5, 75 mM NaCl, 75 mM KCl, 2 mM CHAPS, 4 mM MgCl2, 2 mM TCEP, 10% glycerol, 0.5 nM Cy5-DNA, 4 uM ligands, 294 K; details: protein: recombinant;recombinant;recombinant, tags: N-terminal His6 (pET15b), copies: 1;1;1
[17] = 5' overhang 1 nt at both ends (so in the source)

B1: RAR/RXR heterodimer (RARAΔABF with RXRAΔAB) (complex)
chain 1: PRIYKPCFVCQDKSSGYHYGVSACEGCKGFFRRSIQKNMVYTCHRDKNCIINKVTRNRCQYCRLQKCFDVGMSKESVRNDRNKKKKEAPKPECSESYTLTPEVGELIEKVRKAHQETFPALCQLGKYTTNNSSEQRVSLDIDLWDKFSELSTKCIIKTVEFAKQLPGFTTLTIADQITLLKAACLDILILRICTRYTPEQDTMTFSDGLTLNRTQMHNAGFGPLTDLVFAFANQLLPLEMDDAETGLLSAICLICGDRQDLEQPDKVDMLQEPLLEALKVYVRKRRPSRPHMFPKMLMKITDLRSISAKGAERVITLKMEIPGSMPPLIQEMLENSEGLD
chain 2: NMASFTKHICAICGDRSSGKHYGVYSCEGCKGFFKRTVRKDLTYTCRDNKDCLIDKRQRNRCQYCRYQKCLAMGMKREAVQEERQRGKDRNENEVESTSSANEDMPVERILEAELAVEPKTETYVEANMGLNPSSPNDPVTNICQAADKQLFTLVEWAKRIPHFSELPLDDQVILLRAGWNELLIASFSHRSIAVKDGILLATGLHVHRNSAHSAGVGAIFDRVLTELVSKMRDMQMDKTELGCLRAIVLFNPDSKGLSNPAEVEALREKVYASLEAYCKHKYPEQPGRFAKLLLRLPALRSIGLKCLEHLFFFKLIGDTPIDTFLMEMLEAPHQMT
notes: retinoic acid receptor alpha, residues 82-421 of Uniprot entry P11416; as the chain of m1; as the chain of m2; 1:1 heterodimer by SEC-MALS; this is told in the format of each assay; also called RR–DR0; source: E. coli BL21 (DE3); RAR and RXR purified separately, mixed (2-fold excess of RAR), heterodimer purified by SEC (Superdex 200); not shown: His6, N-terminal, cleaved
[1]
  Kd: 538 nM
[2]
  stoichiometry N: 1
[3]
  stoichiometry N: 1
[4]
  Kd: 347 nM
[5]
  Kd: 576 nM
[6]
  Kd: 55.1 nM
[7]
  Kd: 30.1 nM
[8]
  Kd: 27.7 nM
[9]
  Kd: 22.7 nM
[10]
  Kd: 126 nM

B2: MmRARAΔABF (retinoic acid receptor alpha without the A/B and F domains) (domain or fragment, UniProt P11416 82-421, looked up)
chain: PRIYKPCFVCQDKSSGYHYGVSACEGCKGFFRRSIQKNMVYTCHRDKNCIINKVTRNRCQYCRLQKCFDVGMSKESVRNDRNKKKKEAPKPECSESYTLTPEVGELIEKVRKAHQETFPALCQLGKYTTNNSSEQRVSLDIDLWDKFSELSTKCIIKTVEFAKQLPGFTTLTIADQITLLKAACLDILILRICTRYTPEQDTMTFSDGLTLNRTQMHNAGFGPLTDLVFAFANQLLPLEMDDAETGLLSAICLICGDRQDLEQPDKVDMLQEPLLEALKVYVRKRRPSRPHMFPKMLMKITDLRSISAKGAERVITLKMEIPGSMPPLIQEMLENSEGLD
notes: retinoic acid receptor alpha, residues 82-421 of Uniprot entry P11416 (DBD, hinge and LBD; A/B and F domains removed); In the rows of this molecule it stood as a subunit of the RAR/RXR heterodimer; Vector pET15b; also called RARα; NR1B1; source: E. coli BL21 (DE3), purified (HisTrap HP)
[11]
  stoichiometry N: 1

## B3
[12]
  binding result: binds

B4: DR0 Hoxb13 Cy5 (dsDNA)
DNA 1: GAAGGTCAAGGCCAAG
DNA 2: CTTGGCCTTGACCTTC
[13]; blunt
  Kd: 33.5 ± 16.4 nM
[14]; blunt
  Kd: 101 ± 48.1 nM
[15]; blunt
  Kd: 24.1 ± 17.3 nM

B5: IR0 Trim16 Cy5 (dsDNA)
DNA 1: GCAGGGTCATGACCCCGC
DNA 2: CGCGGGGTCATGACCCTG
[13]; [17]
  Kd: 1.9 ± 1.3 nM
[14]; [17]
  Kd: 29.1 ± 24.2 nM
[15]; [17]
  Kd: 3.8 ± 3.1 nM

B6: DR1 idealized (dsDNA)
DNA 1: CTAGGTCAAAGGTCAGC
DNA 2: GCTGACCTTTGACCTAG
[16]; blunt
  binding result: binds

B7: DR5 Rarb2 (dsDNA)
DNA 1: AGGGTTCACCGAAAGTTCACT
DNA 2: AGTGAACTTTCGGTGAACCCT
[16]; blunt
  binding result: binds

B8: IR0 Trim16 (dsDNA)
DNA 1: GCAGGGTCATGACCCCGC
DNA 2: CGCGGGGTCATGACCCTG
[16]; [17]
  binding result: binds

B9: DR1 idealized Cy5 (dsDNA)
DNA 1: CTAGGTCAAAGGTCAGC
DNA 2: GCTGACCTTTGACCTAG
[13]; blunt
  Kd: 6.1 ± 2.2 nM
[14]; blunt
  Kd: 24.6 ± 5 nM
[15]; blunt
  Kd: 8.7 ± 2.9 nM

B10: DR5 Rarb2 Cy5 (dsDNA)
DNA 1: AGGGTTCACCGAAAGTTCACT
DNA 2: AGTGAACTTTCGGTGAACCCT
[13]; blunt
  Kd: 1.7 ± 0.8 nM
[14]; blunt
  Kd: 15 ± 2 nM
[15]; blunt
  Kd: 2.4 ± 0.9 nM
